Test results taken from the supplement of paper PMC10567573.

B1: ELF3 (parent)
chain: RLVYKFGKNSSGWKEEEVLQSRN
B2: TRIM55 (parent)
chain: YLPTRGGTTMASGGRFRCPSCRHE
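Note: lentivirally expressed fusions sorted by FACS into six bins by GFP to DsRed ratio, PSI derived from sequencing read proportions per bin multiplied by bin number.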

Variants of: B1
Test: protein stability index of a GFP-peptide fusion (GPS, HEK-293T) (PSI 1-6); higher = more stable
Details: c terminus: native
With RLVYKFGKNSMGWKEEEVLQSRN [S11M] the protein stability index was 1.73. Work on RLVYKFGKNSSGKKEEEVLQSRN [W13K] yielded a protein stability index of 3.85. For RLVYKFGKNSSGLKEEEVLQSRN [W13L], the protein stability index was 4.02. RLVYKFGKNSSGNKEEEVLQSRN [W13N] showed a protein stability index of 3.67. Variant RLVYKFGKNSSGQKEEEVLQSRN [W13Q] has a protein stability index of 3.29. Work on RLVYKFGKNSSGWKEEEVLQSRG [N23G] yielded a protein stability index of 2. Variant RLVYKFGKNSSGWKEEEVLQSRL [N23L] has a protein stability index of 3.28.

Variants of: B2
Test: as above
Details: c terminus: a fixed tail appended
Work on YFPTRGGTTMASGGRFRCPSCRHE [L2F] yielded a protein stability index of 2.46. For YHPTRGGTTMASGGRFRCPSCRHE [L2H], the protein stability index was 2.78. With YRPTRGGTTMASGGRFRCPSCRHE [L2R] the protein stability index was 1.77. YEPTRGGTTMASGGRFRCPSCRHE [L2E] showed a protein stability index of 2.98. Variant YPPTRGGTTMASGGRFRCPSCRHE [L2P] has a protein stability index of 1.71. Variant YIPTRGGTTMASGGRFRCPSCRHE [L2I] has a protein stability index of 2.22. In the case of YWPTRGGTTMASGGRFRCPSCRHE [L2W], the protein stability index is reported as 2.7. In the case of YKPTRGGTTMASGGRFRCPSCRHE [L2K], the protein stability index is reported as 1.32. Variant YTPTRGGTTMASGGRFRCPSCRHE [L2T] has a protein stability index of 1.38. Variant YQPTRGGTTMASGGRFRCPSCRHE [L2Q] has a protein stability index of 1.02. YMPTRGGTTMASGGRFRCPSCRHE [L2M] showed a protein stability index of 1.93. In the case of YLPTRQGTTMASGGRFRCPSCRHE [G6Q], the protein stability index is reported as 2.15. YLPTRSGTTMASGGRFRCPSCRHE [G6S] gave a protein stability index of 1.97. Work on YLPTRLGTTMASGGRFRCPSCRHE [G6L] yielded a protein stability index of 1.76. Work on YLPTRNGTTMASGGRFRCPSCRHE [G6N] yielded a protein stability index of 1.21. YLPTRYGTTMASGGRFRCPSCRHE [G6Y] gave a protein stability index of 1.37. Variant YLPTREGTTMASGGRFRCPSCRHE [G6E] has a protein stability index of 1.67. With YLPTRCGTTMASGGRFRCPSCRHE [G6C] the protein stability index was 1.84. With YLPTRPGTTMASGGRFRCPSCRHE [G6P] the protein stability index was 1.78. With YLPTRIGTTMASGGRFRCPSCRHE [G6I] the protein stability index was 1.04. Work on YLPTRWGTTMASGGRFRCPSCRHE [G6W] yielded a protein stability index of 1.46. For YLPTRDGTTMASGGRFRCPSCRHE [G6D], the protein stability index was 2.45. In the case of KLPTRGGTTMASGGRFRCPSCRHE [Y1K], the protein stability index is reported as 1.46. NLPTRGGTTMASGGRFRCPSCRHE [Y1N] showed a protein stability index of 3.07. For DLPTRGGTTMASGGRFRCPSCRHE [Y1D], the protein stability index was 2.15. SLPTRGGTTMASGGRFRCPSCRHE [Y1S] gave a protein stability index of 3.15. MLPTRGGTTMASGGRFRCPSCRHE [Y1M] showed a protein stability index of 1.67. In the case of HLPTRGGTTMASGGRFRCPSCRHE [Y1H], the protein stability index is reported as 2.79. Variant GLPTRGGTTMASGGRFRCPSCRHE [Y1G] has a protein stability index of 3.18. For FLPTRGGTTMASGGRFRCPSCRHE [Y1F], the protein stability index was 2.51. LLPTRGGTTMASGGRFRCPSCRHE [Y1L] gave a protein stability index of 2.06. With ALPTRGGTTMASGGRFRCPSCRHE [Y1A] the protein stability index was 2.59. Variant WLPTRGGTTMASGGRFRCPSCRHE [Y1W] has a protein stability index of 2.99. Variant VLPTRGGTTMASGGRFRCPSCRHE [Y1V] has a protein stability index of 1.89. Variant CLPTRGGTTMASGGRFRCPSCRHE [Y1C] has a protein stability index of 2.14. Variant QLPTRGGTTMASGGRFRCPSCRHE [Y1Q] has a protein stability index of 2.45. For ILPTRGGTTMASGGRFRCPSCRHE [Y1I], the protein stability index was 2.52. In the case of YLVTRGGTTMASGGRFRCPSCRHE [P3V], the protein stability index is reported as 1.97. YLNTRGGTTMASGGRFRCPSCRHE [P3N] showed a protein stability index of 2.29. YLDTRGGTTMASGGRFRCPSCRHE [P3D] gave a protein stability index of 1.04. YLLTRGGTTMASGGRFRCPSCRHE [P3L] gave a protein stability index of 1.32. Variant YLITRGGTTMASGGRFRCPSCRHE [P3I] has a protein stability index of 1. For YLRTRGGTTMASGGRFRCPSCRHE [P3R], the protein stability index was 3.49. YLETRGGTTMASGGRFRCPSCRHE [P3E] gave a protein stability index of 1. Work on YLPTRGGMTMASGGRFRCPSCRHE [T8M] yielded a protein stability index of 4.36. With YLPTRGGATMASGGRFRCPSCRHE [T8A] the protein stability index was 1.11. Variant YLPTRGGNTMASGGRFRCPSCRHE [T8N] has a protein stability index of 1.98. For YLPTRGGKTMASGGRFRCPSCRHE [T8K], the protein stability index was 2.1. YLPTRGGHTMASGGRFRCPSCRHE [T8H] gave a protein stability index of 2.88. Variant YLPTRGGCTMASGGRFRCPSCRHE [T8C] has a protein stability index of 3.19. Work on YLPTRGGLTMASGGRFRCPSCRHE [T8L] yielded a protein stability index of 4.11. For YLPTRGGSTMASGGRFRCPSCRHE [T8S], the protein stability index was 1.14. Variant YLPTRGGRTMASGGRFRCPSCRHE [T8R] has a protein stability index of 1.94. Variant YLPTRGGDTMASGGRFRCPSCRHE [T8D] has a protein stability index of 1.36. In the case of YLPTRGGVTMASGGRFRCPSCRHE [T8V], the protein stability index is reported as 2.03. Variant YLPMRGGTTMASGGRFRCPSCRHE [T4M] has a protein stability index of 1.26. YLPYRGGTTMASGGRFRCPSCRHE [T4Y] showed a protein stability index of 1.24. With YLPHRGGTTMASGGRFRCPSCRHE [T4H] the protein stability index was 1.19. With YLPLRGGTTMASGGRFRCPSCRHE [T4L] the protein stability index was 2.73. In the case of YLPQRGGTTMASGGRFRCPSCRHE [T4Q], the protein stability index is reported as 1.7. Work on YLPSRGGTTMASGGRFRCPSCRHE [T4S] yielded a protein stability index of 2.1. With YLPPRGGTTMASGGRFRCPSCRHE [T4P] the protein stability index was 1.36. With YLPCRGGTTMASGGRFRCPSCRHE [T4C] the protein stability index was 3.98. For YLPERGGTTMASGGRFRCPSCRHE [T4E], the protein stability index was 3.35. For YLPWRGGTTMASGGRFRCPSCRHE [T4W], the protein stability index was 1. YLPVRGGTTMASGGRFRCPSCRHE [T4V] gave a protein stability index of 4.07. YLPTDGGTTMASGGRFRCPSCRHE [R5D] showed a protein stability index of 1.73. For YLPTQGGTTMASGGRFRCPSCRHE [R5Q], the protein stability index was 2.28. YLPTEGGTTMASGGRFRCPSCRHE [R5E] gave a protein stability index of 2.4. Variant YLPTIGGTTMASGGRFRCPSCRHE [R5I] has a protein stability index of 1.98. In the case of YLPTNGGTTMASGGRFRCPSCRHE [R5N], the protein stability index is reported as 1.44. In the case of YLPTHGGTTMASGGRFRCPSCRHE [R5H], the protein stability index is reported as 1.32. For YLPTVGGTTMASGGRFRCPSCRHE [R5V], the protein stability index was 1.51. YLPTAGGTTMASGGRFRCPSCRHE [R5A] gave a protein stability index of 1.87. Variant YLPTWGGTTMASGGRFRCPSCRHE [R5W] has a protein stability index of 3.96. Variant YLPTGGGTTMASGGRFRCPSCRHE [R5G] has a protein stability index of 2. YLPTRGPTTMASGGRFRCPSCRHE [G7P] gave a protein stability index of 2.91. In the case of YLPTRGETTMASGGRFRCPSCRHE [G7E], the protein stability index is reported as 1.75. With YLPTRGLTTMASGGRFRCPSCRHE [G7L] the protein stability index was 1.34. Variant YLPTRGITTMASGGRFRCPSCRHE [G7I] has a protein stability index of 1.45. Variant YLPTRGVTTMASGGRFRCPSCRHE [G7V] has a protein stability index of 1.37. For YLPTRGFTTMASGGRFRCPSCRHE [G7F], the protein stability index was 1.26. With YLPTRGWTTMASGGRFRCPSCRHE [G7W] the protein stability index was 1.5. In the case of YLPTRGKTTMASGGRFRCPSCRHE [G7K], the protein stability index is reported as 1.01. Variant YLPTRGTTTMASGGRFRCPSCRHE [G7T] has a protein stability index of 2.33. In the case of YLPTRGQTTMASGGRFRCPSCRHE [G7Q], the protein stability index is reported as 2.24. YLPTRGATTMASGGRFRCPSCRHE [G7A] gave a protein stability index of 1.64. Work on YLPTRGYTTMASGGRFRCPSCRHE [G7Y] yielded a protein stability index of 2.17. For YLPTRGRTTMASGGRFRCPSCRHE [G7R], the protein stability index was 1.12.
